Experiments:
[1] = target: T1, EGFR and cMET co-expressed on the surface of tumour cell lines (HCC827, HT29, H441, H1975) (UniProt P00533 25-1210; P08581 25-1390); assay: confocal fluorescence microscopy, AlexaFluor647-labelled antibody pre-bound to cells, T=0
T1 construct: whole, on cells; Target of the bispecific molecules on cells that carry both receptors; the cell line of each value stands under assay; also called EGFR and c-MET expressing cell line; EGFR and/or cMET expressing cell lines

[2] = target: mouse cMET (recombinant) (mouse, UniProt P16056 25-929, limits assumed); assay: ELISA, antigen coated at 1 µg/mL, antibody titrated from 10 µg/mL
Chain of mouse cMET (recombinant) (P16056 25-929 limits assumed): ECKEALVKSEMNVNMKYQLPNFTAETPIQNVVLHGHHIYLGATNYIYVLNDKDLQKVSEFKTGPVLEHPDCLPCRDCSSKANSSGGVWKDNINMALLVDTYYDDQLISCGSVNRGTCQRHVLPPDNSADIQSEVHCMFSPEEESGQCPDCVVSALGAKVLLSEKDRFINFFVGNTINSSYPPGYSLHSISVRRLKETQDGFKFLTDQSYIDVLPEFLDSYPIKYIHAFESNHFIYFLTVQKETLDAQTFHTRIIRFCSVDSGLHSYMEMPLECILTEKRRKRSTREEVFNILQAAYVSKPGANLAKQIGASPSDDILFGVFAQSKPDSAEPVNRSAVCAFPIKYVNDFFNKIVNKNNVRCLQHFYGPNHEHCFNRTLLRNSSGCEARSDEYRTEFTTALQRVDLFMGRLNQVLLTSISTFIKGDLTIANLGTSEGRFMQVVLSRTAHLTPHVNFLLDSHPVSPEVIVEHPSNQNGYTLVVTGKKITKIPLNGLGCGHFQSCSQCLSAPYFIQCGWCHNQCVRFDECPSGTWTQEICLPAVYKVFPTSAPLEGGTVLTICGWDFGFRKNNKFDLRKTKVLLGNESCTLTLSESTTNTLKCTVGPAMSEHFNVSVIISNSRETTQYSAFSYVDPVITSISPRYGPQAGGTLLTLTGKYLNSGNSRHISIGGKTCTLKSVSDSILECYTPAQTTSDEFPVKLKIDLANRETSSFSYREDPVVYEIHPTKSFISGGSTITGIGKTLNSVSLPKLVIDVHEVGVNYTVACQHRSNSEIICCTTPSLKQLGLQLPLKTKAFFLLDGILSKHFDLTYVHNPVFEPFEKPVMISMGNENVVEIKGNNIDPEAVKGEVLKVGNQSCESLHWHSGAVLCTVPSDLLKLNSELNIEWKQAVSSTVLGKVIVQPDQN
Description: Specificity for EGFR and cMET species paralogs and closely related family members was determined by ELISA. Briefly, antigen solutions were prepared in PBS at 1 μg/mL and 50 microliters was coated onto half area ELISA assay plates. Plates were washed and blocked with 1% BSA in PBS containing 0.005% Tween-20 (PBS-T) for one hour at room temperature. […] Wells were incubated with 50 microliters of the indicated primary antibodies diluted in PBS-T in a 1:3 dilution series, starting at 10 μg/mL and ending at 0.002 μg/mL, except for the HER4 binding mAb control, MAB1131, for which the series started at 1 μg/mL. The wells were washed 4 times in PBS-T, then 50 μl of goat anti-human Fab HRP-labeled secondary antibody, diluted 1:5000 in PBS-T, was added to each well and incubated for one hour at room temperature. […] 50 microliters of TMB stop solution was added to all wells and the absorbance was read at 450 nm on a SpectraMax M5 microplate reader. Data were analyzed in the SoftMax Pro 5 software and plotted using GraphPad Prism 7 graphing software.
To determine the species cross reactivity, ELISA assays were carried out as described above.

[3] = target: T2, mouse EGFR (recombinant) (mouse, UniProt Q01279 25-647); assay: SPR (BIAcore T200), antibody captured on anti-human IgG, soluble monomeric antigen as analyte, 25 C, 1:1 fit
T2 construct: also called murine EGFR
Description: (§1) Mouse anti-human IgG was immobilized on a CM4 sensor chip with a final surface density of ˜2000 resonance units (RUs). A reference flow cell surface was also prepared on this sensor chip using identical immobilization protocol. Test and control article antibodies were prepared at 5-20 nM in instrument buffer (HBS-EP buffer; 0.01M HEPES, pH 7.4, 0.15M NaCl, 3 mM EDTA, and 0.005% P-20), along with 3-fold serial dilutions of purified EGFR (0.27-200 nM human, 0.4-900 nM cyno, and 4-1000 nM murine) or cMET proteins (0.27-66 nM human and 0.27-22 nM cyno) in instrument buffer. A sequential approach was utilized for kinetic measurements. Antibodies were first injected over the capture surface, at a flow rate of 10 μL/minute. Once the binding of the captured antibody stabilized, a single concentration of the analyte was injected over both capture and reference surfaces, at a flow rate of 75 μL/minute. The resulting binding response curves yielded the association phase data. Following the injection of analyte, the flow was then switched back to instrument buffer for 15 minutes to permit the collection of dissociation phase data, followed by a 1-minute pulse of 10 mM glycine, pH 1.5, to regenerate the antibody-captured surface on the chip. Binding responses against test and control article antibodies were recorded from duplicate injections of each concentration of analyte. In addition, several buffer injections were interspersed throughout the injection series. Select buffer injections were used along with the reference cell responses to correct the raw data sets for injection artifacts and/or nonspecific binding interactions, commonly referred to as “double referencing”. Corrected binding data were globally fit to a 1:1 binding model (Biacore T200 Evaluation software 2.0, GE Healthcare, Pittsburgh, PA).
(§2) Kinetic measurements to soluble monomeric forms of EGFR and cMET were performed using a BIACore instrument.

[4] = target: T3, human EGFR (recombinant, soluble monomeric) (human, UniProt P00533 25-645); assay: as above
T3 construct: also called EGFR antigen
Description: as §1, §2

[5] = target: T4, cynomolgus monkey cMET (recombinant, soluble monomeric) (cynomolgus monkey, UniProt A0M8R7 25-932 (Papio anubis entry)); assay: as above
T4 construct: also called cyno cMET
T4 sequence (A0M8R7 25-932 S170N/I621T): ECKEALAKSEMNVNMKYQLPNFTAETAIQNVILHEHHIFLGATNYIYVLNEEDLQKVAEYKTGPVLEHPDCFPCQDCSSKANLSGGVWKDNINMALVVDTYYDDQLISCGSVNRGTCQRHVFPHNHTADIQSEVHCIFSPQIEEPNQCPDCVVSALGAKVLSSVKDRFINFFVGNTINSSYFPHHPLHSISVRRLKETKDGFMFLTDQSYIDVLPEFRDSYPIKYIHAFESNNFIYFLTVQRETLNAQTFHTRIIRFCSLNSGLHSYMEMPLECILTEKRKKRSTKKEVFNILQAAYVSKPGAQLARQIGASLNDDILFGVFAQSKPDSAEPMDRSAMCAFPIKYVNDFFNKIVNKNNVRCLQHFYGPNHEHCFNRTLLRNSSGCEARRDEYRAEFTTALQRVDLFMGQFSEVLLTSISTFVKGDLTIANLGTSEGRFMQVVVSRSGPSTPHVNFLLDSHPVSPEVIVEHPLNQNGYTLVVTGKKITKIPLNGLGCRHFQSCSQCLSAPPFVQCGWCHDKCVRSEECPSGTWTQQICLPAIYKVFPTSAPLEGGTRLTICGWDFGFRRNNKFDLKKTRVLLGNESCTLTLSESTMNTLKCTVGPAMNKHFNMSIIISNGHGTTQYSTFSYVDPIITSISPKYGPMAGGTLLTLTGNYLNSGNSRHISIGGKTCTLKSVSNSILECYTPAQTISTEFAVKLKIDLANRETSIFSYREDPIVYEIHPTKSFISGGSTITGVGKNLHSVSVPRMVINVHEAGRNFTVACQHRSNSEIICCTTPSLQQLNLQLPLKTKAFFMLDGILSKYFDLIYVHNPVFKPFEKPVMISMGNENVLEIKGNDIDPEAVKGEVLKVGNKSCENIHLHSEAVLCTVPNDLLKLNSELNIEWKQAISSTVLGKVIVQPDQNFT
Description: as §1, §2

[6] = target: T5, human cMET (recombinant, soluble monomeric) (human, UniProt P08581 25-932); assay: as above
T5 construct: also called cMET antigen; His-tagged cMET antigen
T5 sequence (P08581 25-932): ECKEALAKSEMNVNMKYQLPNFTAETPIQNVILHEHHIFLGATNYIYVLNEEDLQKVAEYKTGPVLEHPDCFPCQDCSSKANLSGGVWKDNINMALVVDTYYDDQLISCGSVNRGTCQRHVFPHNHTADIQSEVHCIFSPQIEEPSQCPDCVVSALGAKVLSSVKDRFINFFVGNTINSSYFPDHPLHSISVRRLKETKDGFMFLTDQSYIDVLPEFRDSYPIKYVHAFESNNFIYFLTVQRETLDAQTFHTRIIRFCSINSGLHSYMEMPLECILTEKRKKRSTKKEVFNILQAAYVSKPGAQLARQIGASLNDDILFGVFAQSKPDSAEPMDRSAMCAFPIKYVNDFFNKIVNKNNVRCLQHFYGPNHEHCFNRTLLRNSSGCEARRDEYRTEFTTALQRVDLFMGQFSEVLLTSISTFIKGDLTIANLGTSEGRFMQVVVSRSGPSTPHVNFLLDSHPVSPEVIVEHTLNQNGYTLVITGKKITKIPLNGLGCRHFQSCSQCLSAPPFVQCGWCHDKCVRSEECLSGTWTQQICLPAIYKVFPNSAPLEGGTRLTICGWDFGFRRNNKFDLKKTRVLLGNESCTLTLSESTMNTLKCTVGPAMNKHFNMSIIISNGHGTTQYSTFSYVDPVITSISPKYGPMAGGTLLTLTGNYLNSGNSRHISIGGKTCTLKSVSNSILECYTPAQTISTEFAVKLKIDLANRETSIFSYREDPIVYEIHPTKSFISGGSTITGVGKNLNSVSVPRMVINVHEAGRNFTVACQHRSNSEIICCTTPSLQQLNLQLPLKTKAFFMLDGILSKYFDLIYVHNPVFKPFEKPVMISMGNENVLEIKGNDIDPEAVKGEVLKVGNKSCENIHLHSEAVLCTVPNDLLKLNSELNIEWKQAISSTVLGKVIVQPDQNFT
Description: as §1, §2

[7] = target: T6, cynomolgus monkey EGFR (recombinant, soluble monomeric) (cynomolgus monkey, UniProt P55245 25-645 (rhesus entry)); assay: as above
T6 construct: also called cyno EGFR
Description: as §1, §2

B1: RAA22/B09-57 DuetMab (bispecific antibody, V domains shown)
VH 1: QVQLVQSGAEVKKPGSSVKVSCKASGGTFSDNDFSWVRQAPGQGLEWMGAIVAVFRTETYAQKFQDRVKITADISTRTTYMELSSLRSEDTAVYYCARRLMSAISGPGAPLLMWGQGTLVTVSS
VL 1: QSALTQPRSVSGSPGQSVTISCTGTSSDVGGYNYVSWYQQHPGKAPKLMIYDVSKRPSGVPDRFSGSKSGNTASLTISGLQAEDEADYYCSSYTSSDTLEIFGGGTKLTVL
VH 2: QVQLVQSGAEVKKPGASVKVSCKASGYTFTDYYIHWVRQATGQGLEWMGWMNPNSGNTGYAQKFQGRVTMTRDTSISTAYMELSSLRSEDTAVYYCARGQGYTHSWGQGTMVTVSS
VL 2: DIQMTQSPSTLSASVGDRVTITCRASEGIYHWLAWYQQKPGKAPKLLIYKASSLASGVPSRFSGSGSGTEFTLTISSLQPDDFATYYCQQYSNYPPTFGGGTKLEIK
notes: RAA22 VH on Hole heavy chain (T366S, L368A, Y407V, Y349C) with lambda CL; cysteine insertion after S239; also called RAA22/B09 DuetMab; RAA22/B09 bispecific mAb
In the case of B1, the “fold binding on HCC827 cells over H1975 cells” value [1] is reported as 8.9 fold, the binding result [2] is reported as “no binding (tested: 10 µg/mL)” and the Kd [3] is reported as 0.575 µM. For the same binder, the koff [3] was 0.0206 s⁻¹, the kon [3] was 35400 M⁻¹ s⁻¹ and the Kd [4] was 0.045 µM. The koff [4] was 0.00201 s⁻¹, the kon [4] was 44700 M⁻¹ s⁻¹ and the Kd [5] was 0.0022 µM. The koff [5] was 0.00212 s⁻¹, the kon [5] was 974000 M⁻¹ s⁻¹ and the Kd [6] was 0.0022 µM. It also gave a koff [6] of 0.000986 s⁻¹, a kon [6] of 443000 M⁻¹ s⁻¹ and a Kd [7] of 0.197 µM. The koff [7] was 0.00548 s⁻¹ and the kon [7] was 27800 M⁻¹ s⁻¹.

Reference: US20250121104A1 (FUSION PHARMACEUTICALS, published 2025)
